According to article doi:10.1101/2023.09.04.556233:
Read-outs that look alike come from different tables or passages of the source.

Experiments:
Assay in all cases: EMSA
Spalt major (Salm) [1] = biological target: T1, Spalt major (Salm) (UniProt P39770 1-1365)
T1 sequence: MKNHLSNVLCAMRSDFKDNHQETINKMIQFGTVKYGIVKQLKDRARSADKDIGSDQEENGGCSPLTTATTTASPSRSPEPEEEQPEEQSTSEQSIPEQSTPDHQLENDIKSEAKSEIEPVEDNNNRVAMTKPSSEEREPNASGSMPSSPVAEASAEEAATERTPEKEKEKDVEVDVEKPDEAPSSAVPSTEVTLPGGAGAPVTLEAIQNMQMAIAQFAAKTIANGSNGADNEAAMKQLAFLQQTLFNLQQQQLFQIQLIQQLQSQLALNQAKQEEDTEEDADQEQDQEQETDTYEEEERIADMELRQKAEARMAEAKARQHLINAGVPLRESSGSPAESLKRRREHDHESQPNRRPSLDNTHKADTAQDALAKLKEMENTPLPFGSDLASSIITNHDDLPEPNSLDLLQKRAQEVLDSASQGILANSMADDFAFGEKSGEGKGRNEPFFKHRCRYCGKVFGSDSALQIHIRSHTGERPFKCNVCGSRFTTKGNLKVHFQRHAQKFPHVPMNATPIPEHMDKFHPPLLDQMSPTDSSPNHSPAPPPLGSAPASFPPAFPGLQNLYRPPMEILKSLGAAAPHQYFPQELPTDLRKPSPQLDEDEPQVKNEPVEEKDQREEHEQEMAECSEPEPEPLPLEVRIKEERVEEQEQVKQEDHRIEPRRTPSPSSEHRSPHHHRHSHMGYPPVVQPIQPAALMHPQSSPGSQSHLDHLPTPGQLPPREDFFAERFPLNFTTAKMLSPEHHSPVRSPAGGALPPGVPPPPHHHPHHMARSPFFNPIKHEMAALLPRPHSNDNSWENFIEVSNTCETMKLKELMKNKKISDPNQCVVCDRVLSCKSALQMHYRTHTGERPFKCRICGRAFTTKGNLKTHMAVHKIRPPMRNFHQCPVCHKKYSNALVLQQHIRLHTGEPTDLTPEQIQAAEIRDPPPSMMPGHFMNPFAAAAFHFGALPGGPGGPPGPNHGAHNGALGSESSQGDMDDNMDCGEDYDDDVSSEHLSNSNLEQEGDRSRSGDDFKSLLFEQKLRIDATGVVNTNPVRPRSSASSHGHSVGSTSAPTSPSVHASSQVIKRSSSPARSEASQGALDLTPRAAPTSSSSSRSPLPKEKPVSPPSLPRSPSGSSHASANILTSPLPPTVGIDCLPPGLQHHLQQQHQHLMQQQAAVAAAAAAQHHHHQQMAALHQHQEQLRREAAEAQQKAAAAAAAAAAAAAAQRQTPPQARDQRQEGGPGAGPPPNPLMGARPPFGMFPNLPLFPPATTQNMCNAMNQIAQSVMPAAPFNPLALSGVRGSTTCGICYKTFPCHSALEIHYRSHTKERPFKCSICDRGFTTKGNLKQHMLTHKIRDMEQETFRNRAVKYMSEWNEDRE

Spalt major (Salm) [2] = biological target: T1, Spalt major (Salm); remark: listed apart in the source
Spalt major (Salm) [3] = biological target: T1, Spalt major (Salm); remark: listed apart in the source

B1: 60salC (5' half, conserved) (dsDNA)
DNA 1: GCAAAAAGATATCAAAAATGTCGCATATT
DNA 2: AATATGCGACATTTTTGATATCTTTTTGC
B1: binds (Spalt major (Salm) [1]).

B2: 60sal (dsDNA)
DNA 1: GCAAAAAGATATCAAAAATGTCGCATATTAATAACGCTCTCCATTGGCGGACACAGGAC
DNA 2: GTCCTGTGTCCGCCAATGGAGAGCGTTATTAATATGCGACATTTTTGATATCTTTTTGC
B2: binds (Spalt major (Salm) [2]).

B3: 60salNC (3' half, non-conserved) (dsDNA)
DNA 1: TTAATAACGCTCTCCATTGGCGGACACAGGAC
DNA 2: GTCCTGTGTCCGCCAATGGAGAGCGTTATTAA
B3: binds (Spalt major (Salm) [3]).
